Assay: in vivo
Conditions: SCID, mouse, in vivo, iv, 4 uCi, total radioactivity

Structure (SMILES): CSCC[C@H](NC(=O)[C@H](CC(C)C)NC(=O)[C@H](Cc1cnc[nH]1)NC(=O)CNC(=O)[C@@H](NC(=O)[C@H](C)NC(=O)[C@H](Cc1c[nH]c2ccccc12)NC(=O)[C@H](CCC(N)=O)NC(=O)CCCCCCCNC(=O)CN1CCN(CC(=O)O)CCN(CC(=O)O)CCN(CC(=O)O)CC1)C(C)C)C(N)=O [111In-DOTA-8-Aoc-BBN[7-14]NH2, metal not drawn]
- tissue uptake dose at […] (Avg % ID, Blood, 15 min): 7.92 ± 2.03 %ID
- tissue uptake dose at 0.5 h (Avg % ID, Blood, 30 min): 2.47 ± 0.74 %ID
- tissue uptake dose at 1 h (Avg % ID, Blood, 1 hr): 0.92 ± 0.58 %ID
- tissue uptake dose at 48 h (Avg % ID, Blood, 48 hrs): 0.12 ± 0.05 %ID
- tissue uptake dose at […] (Avg % ID, Carcass, 15 min): 33.1 ± 5.51 %ID
- tissue uptake dose at 0.5 h (Avg % ID, Carcass, 30 min): 12.3 ± 3.27 %ID
- dose excreted at 24 h (Avg % ID, Feces, 24 hrs): 6.1 ± 2.6%
- dose excreted at 48 h (Avg % ID, Feces, 48 hrs): 5.89 ± 3.81%
- tissue uptake dose at […] (Avg % ID, Heart, 15 min): 0.2 ± 0.07 %ID
- tissue uptake dose at 0.5 h (Avg % ID, Heart, 30 min): 0.06 ± 0.02 %ID
- tissue uptake dose at 4 h (Avg % ID, Heart, 4 hrs): 0.01 ± 0.01 %ID
- tissue uptake dose at 48 h (Avg % ID, Heart, 48 hrs): 0.01 ± 0.01 %ID
- tissue uptake dose at […] (Avg % ID, Kidney, 15 min): 7.18 ± 3.16 %ID
- tissue uptake dose at 0.5 h (Avg % ID, Kidney, 30 min): 2.45 ± 0.78 %ID
- tissue uptake dose at 1 h (Avg % ID, Kidney, 1 hr): 1.81 ± 0.37 %ID
- tissue uptake dose at 4 h (Avg % ID, Kidney, 4 hrs): 0.97 ± 0.08 %ID
- tissue uptake dose at 48 h (Avg % ID, Kidney, 48 hrs): 0.16 ± 0.04 %ID
- tissue uptake dose at […] (Avg % ID, L. Intestine, 15 min): 5.84 ± 0.9 %ID
- tissue uptake dose at 0.5 h (Avg % ID, L. Intestine, 30 min): 4.53 ± 0.45 %ID
- tissue uptake dose at 1 h (Avg % ID, L. Intestine, 1 hr): 2.18 ± 0.86 %ID
- tissue uptake dose at 24 h (Avg % ID, L. Intestine, 24 hrs): 1.46 ± 0.42 %ID
- tissue uptake dose at 48 h (Avg % ID, L. Intestine, 48 hrs): 0.73 ± 0.21 %ID
- tissue uptake dose at 72 h (Avg % ID, L. Intestine, 72 hrs): 0.41 ± 0.05 %ID
- tissue uptake dose at […] (Avg % ID, Liver, 15 min): 1.85 ± 0.41 %ID
- tissue uptake dose at 0.5 h (Avg % ID, Liver, 30 min): 0.85 ± 0.21 %ID
- tissue uptake dose at 72 h (Avg % ID, Liver, 72 hrs): 0.08 ± 0.01 %ID
- tissue uptake dose at […] (Avg % ID, Lung, 15 min): 0.62 ± 0.25 %ID
- tissue uptake dose at 0.5 h (Avg % ID, Lung, 30 min): 0.2 ± 0.06 %ID
- tissue uptake dose at 24 h (Avg % ID, Lung, 24 hrs): 0.02 ± 0.01 %ID
- tissue uptake dose at 48 h (Avg % ID, Lung, 48 hrs): 0.01 %ID
- tissue uptake dose at […] (Avg % ID, Muscle, 15 min): 0.16 ± 0.06 %ID
- tissue uptake dose at 0.5 h (Avg % ID, Muscle, 30 min): 0.05 ± 0.02 %ID
- tissue uptake dose at 1 h (Avg % ID, Muscle, 1 hr): 0.01 ± 0.01 %ID
- tissue uptake dose at 24 h (Avg % ID, Muscle, 24 hrs): 0.01 ± 0.01 %ID
- tissue uptake dose at […] (Avg % ID, Pancreas, 15 min): 10.3 ± 1.44 %ID
- tissue uptake dose at 0.5 h (Avg % ID, Pancreas, 30 min): 7.37 ± 1.2 %ID
- tissue uptake dose at 4 h (Avg % ID, Pancreas, 4 hrs): 3.28 ± 0.8 %ID
- tissue uptake dose at 48 h (Avg % ID, Pancreas, 48 hrs): 0.17 ± 0.09 %ID
- tissue uptake dose at 72 h (Avg % ID, Pancreas, 72 hrs): 0.06 ± 0.02 %ID
- tissue uptake dose at […] (Avg % ID, S. Intestine, 15 min): 6.98 ± 0.35 %ID
- tissue uptake dose at 0.5 h (Avg % ID, S. Intestine, 30 min): 6.24 ± 0.46 %ID
- tissue uptake dose at 1 h (Avg % ID, S. Intestine, 1 hr): 7.45 ± 1.62 %ID
- tissue uptake dose at 4 h (Avg % ID, S. Intestine, 4 hrs): 2.43 ± 0.56 %ID
- tissue uptake dose at 24 h (Avg % ID, S. Intestine, 24 hrs): 0.98 ± 0.26 %ID
- tissue uptake dose at 48 h (Avg % ID, S. Intestine, 48 hrs): 0.32 ± 0.07 %ID
- tissue uptake dose at 72 h (Avg % ID, S. Intestine, 72 hrs): 0.15 ± 0.02 %ID
- tissue uptake dose at […] (Avg % ID, Spleen, 15 min): 0.1 ± 0.02 %ID
- tissue uptake dose at 0.5 h (Avg % ID, Spleen, 30 min): 0.08 ± 0.03 %ID
- tissue uptake dose at 48 h (Avg % ID, Spleen, 48 hrs): 0.01 ± 0.01 %ID
- tissue uptake dose at 72 h (Avg % ID, Spleen, 72 hrs): 0.01 ± 0.01 %ID
- tissue uptake dose at […] (Avg % ID, Stomach, 15 min): 0.98 ± 0.18 %ID
- tissue uptake dose at 0.5 h (Avg % ID, Stomach, 30 min): 0.65 ± 0.04 %ID
- tissue uptake dose at 1 h (Avg % ID, Stomach, 1 hr): 0.52 ± 0.11 %ID
- tissue uptake dose at 4 h (Avg % ID, Stomach, 4 hrs): 0.34 ± 0.23 %ID
- tissue uptake dose at 72 h (Avg % ID, Stomach, 72 hrs): 0.02 ± 0.01 %ID
- tissue uptake dose at […] (Avg % ID, Tumor, 15 min): 1.92 ± 1.22 %ID
- tissue uptake dose at 0.5 h (Avg % ID, Tumor, 30 min): 0.99 ± 0.62 %ID
- tissue uptake dose at 24 h (Avg % ID, Tumor, 24 hrs): 0.25 ± 0.13 %ID
- tissue uptake dose at 48 h (Avg % ID, Tumor, 48 hrs): 0.08 ± 0.05 %ID
- dose excreted at […] (Avg % ID, Urine, 15 min): 27.9 ± 10.3%
- dose excreted at 0.5 h (Avg % ID, Urine, 30 min): 62.6 ± 5.02%
- dose excreted at 1 h (Avg % ID, Urine, 1 hr): 68.6 ± 6.96%
- dose excreted at 4 h (Avg % ID, Urine, 4 hrs): 81.8 ± 3.82%
- dose excreted at 24 h (Avg % ID, Urine, 24 hrs): 87.2 ± 4.31%
- dose excreted at 48 h (Avg % ID, Urine, 48 hrs): 91.8 ± 4.13%
- dose excreted at 72 h (Avg % ID, Urine, 72 hrs): 92.5 ± 1.09%
- tissue uptake at […] (Avg % ID/gm, Blood, 15 min): 5.58 ± 2.43 %ID/g
- tissue uptake at 1 h (Avg % ID/gm, Blood, 1 hr): 0.6 ± 0.39 %ID/g
- tissue uptake at 48 h (Avg % ID/gm, Blood, 48 hrs): 0.07 ± 0.03 %ID/g
- tissue uptake at […] (Avg % ID/gm, Heart, 15 min): 2.2 ± 1.05 %ID/g
- tissue uptake at 0.5 h (Avg % ID/gm, Heart, 30 min): 0.62 ± 0.33 %ID/g
- tissue uptake at 4 h (Avg % ID/gm, Heart, 4 hrs): 0.13 ± 0.06 %ID/g
- tissue uptake at 24 h (Avg % ID/gm, Heart, 24 hrs): 0.05 ± 0.09 %ID/g
- tissue uptake at […] (Avg % ID/gm, Kidney, 15 min): 29 ± 14.4 %ID/g
